Measured values: US20140235820A1, “METHODS AND COMPOSITIONS FOR MODULATING THE Wnt PATHWAY” (Genentech, Inc., priority 2010, published 2014)
Entries after “also recorded” stand apart in the source; their conditions may differ. Values belong to the molecule of their own block, whether it stands above or below them. Positions of bridges follow the written chain, without caps; N, C: chain ends.

Key:
[1] = target: T1, Dkk1 binding to LRP6 E1E2 (Homo sapiens, UniProt O75581); test: Peptide inhibition of Dkk1 binding to LRP6 E1E2 (biolayer interferometry); conditions: peptide 20-fold higher than IC50; ligand three-fold higher than dissociation constant
T1 construct: construct E1E2-amino acids A20-E631 of LPR6; made in house; host or cells: Tni insect cells (baculovirus, secreted)
T1 sequence (O75581 20-631): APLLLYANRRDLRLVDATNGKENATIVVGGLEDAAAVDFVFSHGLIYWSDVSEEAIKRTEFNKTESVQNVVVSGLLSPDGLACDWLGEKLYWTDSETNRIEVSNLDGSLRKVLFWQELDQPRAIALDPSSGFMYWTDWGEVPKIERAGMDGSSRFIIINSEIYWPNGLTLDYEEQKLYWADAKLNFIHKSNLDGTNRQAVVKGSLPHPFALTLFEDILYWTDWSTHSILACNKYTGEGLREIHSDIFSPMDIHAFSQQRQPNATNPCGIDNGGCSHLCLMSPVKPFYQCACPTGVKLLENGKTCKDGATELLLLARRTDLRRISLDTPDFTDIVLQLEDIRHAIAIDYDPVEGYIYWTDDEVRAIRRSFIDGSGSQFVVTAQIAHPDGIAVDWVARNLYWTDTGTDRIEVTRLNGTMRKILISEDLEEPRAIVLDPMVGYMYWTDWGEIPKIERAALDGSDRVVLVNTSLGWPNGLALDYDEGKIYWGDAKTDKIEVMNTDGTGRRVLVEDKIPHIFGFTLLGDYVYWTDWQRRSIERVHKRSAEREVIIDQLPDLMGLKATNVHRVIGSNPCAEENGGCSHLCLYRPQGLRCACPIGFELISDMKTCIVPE
Protocol: (§1) FIG. 22. […] Binding was assessed by biolayer interferometry, as described in Example 1. Immobilized LRP6 E1E2 was exposed to protein ligand (Wnt 9b, Dkk1, or sclerostin) present in solution at a concentration three-fold higher than the measured dissociation constant for E1E2. Competing peptides were added at a saturating level (20-fold higher than the measured IC50 value). Peptide A: Ac-NSNAIKN-am; Peptide B: Ac-[…]-am (disulfide); Peptide C: Ac-[…]-am (disulfide)
(§2) Binding kinetics were measured by biolayer interferometry using an Octet Red instrument (ForteBio) as previously described (11). Streptavidin (SA) biosensors were loaded with biotinylated hLRP6 in 50 mMTris, pH 8, 300 mM NaCl, 5% (v/v) glycerol, and 0.05% (w/v) Triton X-100. The loaded biosensors were washed in the same buffer before carrying out association and dissociation measurements for the indicated times. The Kd of each interaction was determined using steady state-analysis through the Octet Red software v6.3. Each reported value represents an average of three or more experiments at different concentrations, with a fitted experimental curve for which the square of the correlation coefficient (R^2) is above 0.96.
(§3) To support the conclusions from protein mutagenesis, peptides were assayed for inhibitory activity toward binding of various ligands to LRP6. Three different peptides inhibited binding of the inhibitors Dkk1 and sclerostin to LRP6 E1E2 without affecting the binding of Wnt9B (FIG. 22).

[2] = target: T2, sclerostin binding to LRP6 E1E2 (Homo sapiens, UniProt O75581); test: Peptide inhibition of sclerostin binding to LRP6 E1E2 (biolayer interferometry); conditions: peptide 20-fold higher than IC50; ligand three-fold higher than dissociation constant
T2 construct: construct E1E2-amino acids A20-E631 of LPR6; made in house; host or cells: Tni insect cells (baculovirus, secreted)
T2 sequence (O75581 20-631): T1 sequence (O75581 20-631)
Protocol: as §1, §2, §3

[3] = target: T3, human LRP6 construct E1E2 (amino acids A20-E631) (human, UniProt O75581 20-631, biotinylated for biolayer interferometry); test: BLI (FIG. 9B)
T3 construct: range 20-631; also called LRP6 E1E2
T3 sequence (looked up): T1 sequence (O75581 20-631)
Protocol: as §2, with “(R²)” for “(R^2)”

[4] = target: T4, human LRP6 construct E1E4 (amino acids A20-Q1253) (human, UniProt O75581 20-1253, biotinylated for biolayer interferometry); test: BLI (FIG. 9B)
T4 construct: range 20-1253; Expressed in Tni insect cells; tags not specified for this construct; also called LRP6 E1E4
T4 sequence (looked up): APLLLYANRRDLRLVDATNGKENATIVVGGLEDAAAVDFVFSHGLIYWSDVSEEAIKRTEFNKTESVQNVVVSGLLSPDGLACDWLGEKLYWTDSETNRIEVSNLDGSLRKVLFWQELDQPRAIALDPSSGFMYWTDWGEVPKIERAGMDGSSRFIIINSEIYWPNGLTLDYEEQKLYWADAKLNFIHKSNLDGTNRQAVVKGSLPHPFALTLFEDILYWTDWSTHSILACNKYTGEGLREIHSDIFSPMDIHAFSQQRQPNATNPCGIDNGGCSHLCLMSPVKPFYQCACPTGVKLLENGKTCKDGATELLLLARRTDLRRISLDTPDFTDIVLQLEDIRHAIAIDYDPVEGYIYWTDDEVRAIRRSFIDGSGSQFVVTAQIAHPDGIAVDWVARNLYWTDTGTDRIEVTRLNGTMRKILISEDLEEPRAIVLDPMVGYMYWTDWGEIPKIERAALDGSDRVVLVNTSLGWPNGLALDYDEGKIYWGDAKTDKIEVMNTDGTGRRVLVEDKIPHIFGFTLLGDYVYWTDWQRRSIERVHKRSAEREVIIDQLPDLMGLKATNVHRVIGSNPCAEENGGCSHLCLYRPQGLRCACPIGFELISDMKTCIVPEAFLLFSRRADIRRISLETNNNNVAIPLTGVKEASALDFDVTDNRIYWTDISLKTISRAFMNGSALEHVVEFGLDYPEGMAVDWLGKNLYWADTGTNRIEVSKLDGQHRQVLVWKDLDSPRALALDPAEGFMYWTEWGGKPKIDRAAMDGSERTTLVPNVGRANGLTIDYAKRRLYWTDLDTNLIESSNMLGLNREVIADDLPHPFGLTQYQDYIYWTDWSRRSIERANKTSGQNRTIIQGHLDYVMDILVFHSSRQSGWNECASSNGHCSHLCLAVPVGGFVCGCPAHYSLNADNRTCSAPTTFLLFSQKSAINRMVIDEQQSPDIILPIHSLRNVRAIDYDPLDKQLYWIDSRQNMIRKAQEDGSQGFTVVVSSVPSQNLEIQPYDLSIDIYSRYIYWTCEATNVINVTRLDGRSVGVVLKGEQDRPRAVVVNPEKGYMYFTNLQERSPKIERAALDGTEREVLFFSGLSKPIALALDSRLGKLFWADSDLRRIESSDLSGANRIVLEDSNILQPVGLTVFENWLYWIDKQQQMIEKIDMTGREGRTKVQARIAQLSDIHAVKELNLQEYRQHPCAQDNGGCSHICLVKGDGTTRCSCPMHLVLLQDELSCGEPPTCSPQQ
Protocol: as §2, with “(R²)” for “(R^2)”

[5] = target: T5, LRP6 E3E4 (Homo sapiens, UniProt O75581); test: Biolayer interferometry binding to LRP6 E3E4
T5 construct: construct E3E4 amino acids E631-Q1253 of LPR6; made in house; host or cells: Tni insect cells (baculovirus, secreted)
T5 sequence (O75581 631-1253): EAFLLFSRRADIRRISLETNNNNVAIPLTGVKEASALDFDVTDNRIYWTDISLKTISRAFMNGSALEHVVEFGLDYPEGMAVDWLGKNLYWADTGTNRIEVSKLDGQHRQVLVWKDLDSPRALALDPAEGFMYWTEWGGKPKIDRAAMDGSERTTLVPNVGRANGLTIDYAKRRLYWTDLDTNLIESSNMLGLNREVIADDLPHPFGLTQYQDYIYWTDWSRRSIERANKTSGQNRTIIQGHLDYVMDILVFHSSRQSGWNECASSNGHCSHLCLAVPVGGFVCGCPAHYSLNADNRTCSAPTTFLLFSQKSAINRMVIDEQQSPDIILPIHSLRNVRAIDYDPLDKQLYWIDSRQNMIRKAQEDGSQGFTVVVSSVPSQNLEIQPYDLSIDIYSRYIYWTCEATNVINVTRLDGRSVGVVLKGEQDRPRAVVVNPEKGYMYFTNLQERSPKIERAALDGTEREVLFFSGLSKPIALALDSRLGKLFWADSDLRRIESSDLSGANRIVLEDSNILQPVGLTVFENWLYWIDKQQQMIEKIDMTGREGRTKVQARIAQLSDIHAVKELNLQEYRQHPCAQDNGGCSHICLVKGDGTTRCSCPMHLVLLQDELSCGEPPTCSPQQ
Protocol: as §2
(§4) The interaction of the different Dkks and sclerostin with various domains of LRP6 was measured using a biolayer interferometry assay (11). Purified receptors contained individual β-propeller-EGF-like units (E1, E2, or E4), two β-propellers (E1E2 or E3E4), or four β-propellers (E1E4))—as follows:
(§5) Human LRP6: construct E1E4-amino acids A20-Q1253 of LPR6; construct E1E2-amino acids A20-E631 of LPR6; construct E3E4 amino acids E631-Q1253 of LPR6; construct E1-amino acids A20-D325 of LPR6; construct E2-amino acids […]-E631 of LPR6; construct E4-T933-Q1253. The individual LRP6 β-propeller E3 could not be expressed.

[6] = target: T6, LRP6 E1E4 (Homo sapiens, UniProt O75581); test: Biolayer interferometry binding to LRP6 E1E4
T6 construct: construct E1E4-amino acids A20-Q1253 of LPR6; made in house; host or cells: Tni insect cells (baculovirus, secreted)
T6 sequence (O75581 20-1253): T4 sequence (looked up)
Protocol: as §2, §4, §5

[7] = target: T3, human LRP6 construct E1E2 (amino acids …); test: BLI (Octet Red), biotinylated LRP6 on streptavidin tips, steady state
Protocol: as §2, with “(R²)” for “(R^2)”

[8] = target: T7, human LRP6 construct E3E4 (amino acids E631-Q1253) (human, UniProt O75581 631-1253, biotinylated for biolayer interferometry); test: as above
T7 construct: range 631-1253; also called LRP6 E3E4
T7 sequence (looked up): T5 sequence (O75581 631-1253)
Protocol: as §2, with “(R²)” for “(R^2)”

binding result [3]: binds
binding result [4]: binds
binding to LRP6 E1E4 (in words) [6]: retain binding
B1: Dkk1 H204E (ligand, human, UniProt O94907 32-266, looked up)
chain: TLNSVLNSNAIKNLPPPLGGAAGHPGSAVSAAPGILYPGGNKYQTIDNYQPYPCAEDEECGTDEYCASPTRGGDAGVQICLACRKRRKRCMRHAMCCPGNYCKNGICVSSDQNHFRGEIEETITESFGNDHSTLDGYSRRTTLSSKMYHTKGQEGSVCLRSSDCASGLCCAREFWSKICKPVLKEGQVCTKHRRKGSHGLEIFQRCYCGEGLSCRIQKDHHQASNSSRLHTCQRH
binding to LRP6 E3E4 (in words) [5]: interfered with binding; also recorded: affect binding

Kd [7]: 53 nM
Kd [8]: 38 nM
B2: Dkk2 (ligand)
chain: KLNSIKSSLGGETPAQSANRSAGMNQGLAFGGSKKGKSLGQAYPCSSDKECEVGRYCHSPHQGSSACMLCRRKKKRCHRDGMCCPGTRCNNGICIPVTESILTPHIPALDGTRHRDRNHGHYSNHDLGWQNLGRPHSKMPHIKGHEGDPCLRSSDCIDGFCCARHFWTKICKPVLHQGEVCTKQRKKGSHGLEIFQRCDCAKGLSCKVWKDATYSSKARLHVCQKI

The next lines start with the molecule.

Molecule: Ac-NSNAIKN-am (Ac-NSNAIKN-NH2) [Peptide A]
inhibition of Dkk1 binding to LRP6 E1E2 [1]: inhibit binding
inhibition of sclerostin binding to LRP6 E1E2 [2]: inhibit binding

Molecule: Ac-GSLCSNRIKPDTHCSS-am (disulfide) (Ac-GSLCSNRIKPDTHCSS-NH2; disulfide 4-14 (inferred)) [Peptide C]
inhibition of Dkk1 binding to LRP6 E1E2 [1]: inhibit binding
inhibition of sclerostin binding to LRP6 E1E2 [2]: inhibit binding

Molecule: Ac-CNSIKFCG-am (disulfide) (Ac-CNSIKFCG-NH2; disulfide 1-7 (inferred)) [Peptide B]
inhibition of Dkk1 binding to LRP6 E1E2 [1]: inhibit binding
inhibition of sclerostin binding to LRP6 E1E2 [2]: inhibit binding
